Reference: publication PMC8010718, “Direct coupling of oligomerization and oligomerization-driven endocytosis of the dopamine transporter to its conformational mechanics and activity” (The Journal of Biological Chemistry, 2021)

B1: YFP- and HA-epitope tagged dopamine transporter (YFP-HA-DAT), wild type [human] / itself (parent)
chain: MSKSKCSVGLMSSVVAPAKEPNAVGPKEVELILVKEQNGVQLTSSTLTNPRQSPVEAQDRETWGKKIDFLLSVIGFAVDLANVWRFPYLCYKNGGGAFLVPYLLFMVIAGMPLFYMELALGQFNREGAAGVWKICPILKGVGFTVILISLYVGFFYNVIIAWALHYLFSSFTTELPWIHCNNSWNSPNCSDAHPGDSSGDSSGLNDTFGTTPAAEYFERGVLHLHQSHGIDDLGPPRWQLTACLVLVIVLLYFSLWKGVKTSGKVVWITATMPYVVLTALLLRGVTLPGAIDGIRAYLSVDFYRLCEASVWIDAATQVCFSLGVGFGVLIAFSSYNKFTNNCYRDAIVTTSINSLTSFSSGFVVFSFLGYMAQKHSVPIGDVAKDGPGLIFIIYPEAIATLPLSSAWAVVFFIMLLTLGIDSAMGGMESVITGLIDEFQLLHRHRELFTLFIVLATFLLSLFCVTNGGIYVFTLLDHFAAGTSILFGVLIEAIGVAWFYGVGQFSDDIQQMTGQRPSLYWRLCWKLVSPCFLLFVVVVSIVTFRPPHYGAYIFPDWANALGWVIATSSMAMVPIYAAYKFCSLPGSFREKLAYAIAPEKDRELVDRGEVRQFTLRHWLKV

Variants of: B1
Test: SDS-PAGE and immunoblotting with the GFP antibody, quantification of trimer band
Conditions: AIM-100 20 μM, 2 h at 37 °C, PAE cells, read off a plot

screen value (fraction of total)	Variant
0.3	chain 1 I248F V249T L458F L459G

Same assay, conditions: AL3 20 μM, 2 h at 37 °C, PAE cells, read off a plot

screen value (fraction of total)	Variant
0.15	chain 1 I248F V249T L458F L459G

Same assay, conditions: AL4 20 μM, 2 h at 37 °C, PAE cells, read off a plot

screen value (fraction of total)	Variant
0.17	chain 1 I248F V249T L458F L459G

Same assay, conditions: AL8 20 μM, 2 h at 37 °C, PAE cells, read off a plot

screen value (fraction of total)	Variant
0.22	chain 1 I248F V249T L458F L459G

Same assay, conditions: vehicle, 2 h at 37 °C, PAE cells, read off a plot

screen value (fraction of total)	Variant
0.17	chain 1 I248F V249T L458F L459G
